T1: PlGF (Placental GF) (UniProt P49763-2 21-149, limits assumed)
T1 construct: Bought reagent
T1 sequence (looked up): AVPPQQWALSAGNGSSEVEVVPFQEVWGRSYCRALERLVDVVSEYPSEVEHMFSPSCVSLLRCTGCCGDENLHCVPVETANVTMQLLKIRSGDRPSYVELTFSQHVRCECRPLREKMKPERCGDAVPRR


What was measured:
[1] = target: T2, human DLL4 extracellular domain (human, UniProt Q9NR61 27-529, biotin label in the Notch-1 competition ELISA (sites not given)); assay: competition ELISA: biotin-labelled human DLL4 ECD pre-mixed with DVD-Ig, then on coated human Notch-1 (competitor Notch-1)
T2 construct: extracellular domain; also called biotin labeled human DLL4 extracellular domain

[2] = target: T1, PlGF (Placental GF); assay: Direct Bind ELISA, antigen on plate; C-terminal VD
Protocol: (§1) Enzyme Linked Immunosorbent Assays to screen for antibodies that bind a desired target antigen were performed as follows. […] Plates were washed four times with PBS containing 0.02% Tween 20. Plates were blocked by the addition of 300 μL/well blocking solution (non-fat dry milk powder, various retail suppliers, diluted to 2% in PBS) for ½ hour at room temperature. Plates were washed four times after blocking with PBS containing 0.02% Tween 20.
(§2) Alternatively, one hundred microliters per well of 10 μg/ml of Histidine (His) tagged desired target antigen (R&D Systems, Minneapolis, Minn.) was added to ELISA plates coated with monoclonal mouse anti-polyHistidine antibody as described above and incubated for 1 hour at room temperature. Wells were washed four times with PBS containing 0.02% Tween 20.
(§3) One hundred microliters of antibody or DVD-Ig preparations diluted in blocking solution as described above was added to the desired target antigen plate or desired target antigen/FC fusion plate or the anti-polyHistidine antibody/His tagged desired target antigen plate prepared as described above and incubated for 1 hour at room temperature. Wells are washed four times with PBS containing 0.02% Tween 20.

[3] = target: T3, DLL4 (DLL4 ECD/His tag) (UniProt Q9NR61 27-529, limits assumed); assay: Direct Bind ELISA, antigen on plate; N-terminal VD
T3 construct: extracellular domain; Bought reagent
Protocol: as §1, §2, §3

[4] = target: T3, DLL4 (DLL4 ECD/His tag); assay: Direct Bind ELISA, antigen on plate; C-terminal VD
Protocol: as §1, §2, §3

[5] = target: T1, PlGF (Placental GF); assay: Direct Bind ELISA, antigen on plate; N-terminal VD
Protocol: as §1, §2, §3

| EC50 [3] | EC50 [4] | EC50 [5] | Binder | further results |
| --- | --- | --- | --- | --- |
| – | – | – | DVD043 (VEGF (seq. 1) N-terminal / DLL4 (seq. 1) C-terminal DVD-Ig) (bispecific antibody, human IgG1, kappa, also called DVD043H/DVD043L) heavy: not shown light: DIQMTQSPSSLSASVGDRVTITCSASQDISNYLNWYQQKPGKAPKVLIYFTSSLHSGVPSRFSGSGSGTDFTLTISSLQPEDFATYYCQQYSTVPWTFGQGTKVEIKRTVAAPDIQMTQSPSSLSASVGDRVTITCRASQDVSTAVAWYQQKPGKAPKLLIYSASFLYSGVPSRFSGSGSGTDFTLTISSLQPEDFATTYYCQQSYTGTVTFGQGTKVEIKRTVAAPSVFIFPPSDEQLKSGTASVVCLLNNFYPREAKVQWKVDNALQSGNSQESVTEQDSKDSTYSLSSTLTLSKADYEKHKVYACEVTHQGLSSPVTKSFNRGEC | IC50 [1]: 13.1 nM |
| 0.28 nM | – | – | DVD257 (DLL-4 (seq. 1) and PLGF (seq. 1) DVD-Ig) (bispecific antibody, IgG1, Outer AB015, inner AB047; HC vector V1 (wild-type hIgG1 constant), LC vector V2 (kappa constant); also called 7H; VD257L) VH: EVQLVESGGGLVQPGGSLRLSCAASGFTFTDNWISWVRQAPGKGLEWVGYISPNSGFTYYADSVKGRFTISADTSKNTAYLQMNSLRAEDTAVYYCARDNFGGYFDYWGQGTLVTVSSASTKGPQVQLQQSGAELVKPGASVKISCKASGYTFTDYYINWVKLAPGQGLEWIGWIYPGSGNTKYNEKFKGKATLTIDTSSSTAYMQLSSLTSEDTAVYFCVRDSPFFDYWGQGTLLTVSS VL: DIQMTQSPSSLSASVGDRVTITCRASQDVSTAVAWYQQKPGKAPKLLIYSASFLYSGVPSRFSGSGSGTDFTLTISSLQPEDFATTYYCQQSYTGTVTFGQGTKVEIKRTVAAPDIVLTQSPDSLAVSLGERVTMNCKSSQSLLNSGMRKSFLAWYQQKPGQSPKLLIYWASTRESGVPDRFTGSGSGTDFTLTISSVQAEDVAVYYCKQSYHLFTFGSGTKLEIKR | EC50 [2]: 2 nM |
| – | 2.12 nM | – | DVD043 (VEGF (seq. 1) and DLL4 (seq. 1) DVD-Ig) (bispecific antibody, IgG1, HC vector V1 (wild-type hIgG1 constant), LC vector V2 (kappa constant); also called DVD043H; DVD043L) VH: EVQLVESGGGLVQPGGSLRLSCAASGYTFTNYGMNWVRQAPGKGLEWVGWINTYTGEPTYAADFKRRFTFSLDTSKSTAYLQMNSLRAEDTAVYYCAKYPHYYGSSHWYFDVWGQGTLVTVSSASTKGPEVQLVESGGGLVQPGGSLRLSCAASGFTFTDNWISWVRQAPGKGLEWVGYISPNSGFTYYADSVKGRFTISADTSKNTAYLQMNSLRAEDTAVYYCARDNFGGYFDYWGQGTLVTVSS VL: DIQMTQSPSSLSASVGDRVTITCSASQDISNYLNWYQQKPGKAPKVLIYFTSSLHSGVPSRFSGSGSGTDFTLTISSLQPEDFATYYCQQYSTVPWTFGQGTKVEIKRTVAAPDIQMTQSPSSLSASVGDRVTITCRASQDVSTAVAWYQQKPGKAPKLLIYSASFLYSGVPSRFSGSGSGTDFTLTISSLQPEDFATTYYCQQSYTGTVTFGQGTKVEIKR | – |
| 0.53 nM | – | – | DVD044 (DLL4 (seq. 1) and VEGF (seq. 1) DVD-Ig) (bispecific antibody, IgG1, HC vector V1 (wild-type hIgG1 constant), LC vector V2 (kappa constant); also called DVD044H; DVD044L) VH: EVQLVESGGGLVQPGGSLRLSCAASGFTFTDNWISWVRQAPGKGLEWVGYISPNSGFTYYADSVKGRFTISADTSKNTAYLQMNSLRAEDTAVYYCARDNFGGYFDYWGQGTLVTVSSASTKGPEVQLVESGGGLVQPGGSLRLSCAASGYTFTNYGMNWVRQAPGKGLEWVGWINTYTGEPTYAADFKRRFTFSLDTSKSTAYLQMNSLRAEDTAVYYCAKYPHYYGSSHWYFDVWGQGTLVTVSS VL: DIQMTQSPSSLSASVGDRVTITCRASQDVSTAVAWYQQKPGKAPKLLIYSASFLYSGVPSRFSGSGSGTDFTLTISSLQPEDFATTYYCQQSYTGTVTFGQGTKVEIKRTVAAPDIQMTQSPSSLSASVGDRVTITCSASQDISNYLNWYQQKPGKAPKVLIYFTSSLHSGVPSRFSGSGSGTDFTLTISSLQPEDFATYYCQQYSTVPWTFGQGTKVEIKR | – |
| – | – | 0.12 nM | DVD260 (PLGF (seq. 1) and VEGF (seq. 1) DVD-Ig) (bispecific antibody, IgG1, HC vector V1 (wild-type hIgG1 constant), LC vector V2 (kappa constant); also called VD260H; VD260L) VH: QVQLQQSGAELVKPGASVKISCKASGYTFTDYYINWVKLAPGQGLEWIGWIYPGSGNTKYNEKFKGKATLTIDTSSSTAYMQLSSLTSEDTAVYFCVRDSPFFDYWGQGTLLTVSSASTKGPEVQLVESGGGLVQPGGSLRLSCAASGYTFTNYGMNWVRQAPGKGLEWVGWINTYTGEPTYAADFKRRFTFSLDTSKSTAYLQMNSLRAEDTAVYYCAKYPHYYGSSHWYFDVWGQGTLVTVSS VL: DIVLTQSPDSLAVSLGERVTMNCKSSQSLLNSGMRKSFLAWYQQKPGQSPKLLIYWASTRESGVPDRFTGSGSGTDFTLTISSVQAEDVAVYYCKQSYHLFTFGSGTKLEIKRTVAAPDIQMTQSPSSLSASVGDRVTITCSASQDISNYLNWYQQKPGKAPKVLIYFTSSLHSGVPSRFSGSGSGTDFTLTISSLQPEDFATYYCQQYSTVPWTFGQGTKVEIKR | – |
| – | 2.3 nM | 0.08 nM | DVD258 (PLGF (seq. 1) and DLL-4 (seq. 1) DVD-Ig) (bispecific antibody, IgG1, Outer AB047, inner AB015; HC vector V1 (wild-type hIgG1 constant), LC vector V2 (kappa constant); also called VD258H; VD258L) VH: QVQLQQSGAELVKPGASVKISCKASGYTFTDYYINWVKLAPGQGLEWIGWIYPGSGNTKYNEKFKGKATLTIDTSSSTAYMQLSSLTSEDTAVYFCVRDSPFFDYWGQGTLLTVSSASTKGPEVQLVESGGGLVQPGGSLRLSCAASGFTFTDNWISWVRQAPGKGLEWVGYISPNSGFTYYADSVKGRFTISADTSKNTAYLQMNSLRAEDTAVYYCARDNFGGYFDYWGQGTLVTVSS VL: DIVLTQSPDSLAVSLGERVTMNCKSSQSLLNSGMRKSFLAWYQQKPGQSPKLLIYWASTRESGVPDRFTGSGSGTDFTLTISSVQAEDVAVYYCKQSYHLFTFGSGTKLEIKRTVAAPDIQMTQSPSSLSASVGDRVTITCRASQDVSTAVAWYQQKPGKAPKLLIYSASFLYSGVPSRFSGSGSGTDFTLTISSLQPEDFATTYYCQQSYTGTVTFGQGTKVEIKR | – |

Reference: patent publication US20100260668A1 (published 2010)
